Values belong to the binder of their own block, whether it stands above or below them.
Columns and labels:
[1] = biological target: T1, c-MET/Fc (UniProt P08581 25-932); assay: HGF/c-MET competition AlphaScreen; competitor: 100 pM biotinylated hHGF
T1 construct: also called c-MET receptor; not shown: Fc part, captured by anti-human Fc acceptor beads

[2] = biological target: T2, c-MET receptor on A549 cells (UniProt P08581 25-1390, limits assumed); assay: cell-based or functional assay
[3] = biological target: T1, c-MET/Fc; assay: HGF/c-MET competition AlphaScreen; competitor: 100 pM biotinylated hHGF; remark: listed apart in the source
Procedure: To this mixture the anti-human Fc conjugated acceptor beads and c-MET/Fc (100 μM final concentration) were added and incubated for 2 hours at RT. Next, streptavidin donor beads were added and the mixture was incubated for 1 additional hour. Fluorescence was measured by reading plates on the EnVision Multilabel Plate Reader using an excitation wavelength of 680 nm and an emission wavelength of 520 nm.

[4] = biological target: T2, c-MET receptor on A549 cells; assay: cell-based or functional assay; remark: listed apart in the source
[5] = biological target: T3, cynomolgus serum albumin (cynomolgus, UniProt A2V9Z4 25-608); assay: SPR, Biacore T100, albumin immobilized on CM5, 25 C, 1:1 model
T3 construct: also called Cyno SA
Procedure: (§1) HBS-EP+ buffer (0.01M HEPES buffer containing 0.15M NaCl, 3 mM EDTA and 0.05% Surfactant p20, pH7.4) was used as the running buffer and experiments were performed at 25° C. Serum albumin was chemically coupled on a Series S sensorchip chip CM5 with carboxymethylated dextran surface by a manual immobilization run at a flow rate of 5 μl/min. […] After immobilization, surfaces were deactivated with a 7 min injection of 1M ethanolamine pH8.5. A blank reference surface (flowcell 1) was activated and deactivated as described above. […] Between different samples, the surfaces were regenerated with regeneration buffer 10 mM glycine-HCl pH1.5, 100 s at 45 μl/min. Data were double referenced by subtraction of the curves on the reference channel and of a blank running buffer injection curve. Processed curves were evaluated by fitting a 1:1 binding model onto the binding curves in the Biacore T100 Evaluation software.

[6] = biological target: T4, mouse serum albumin (mouse, UniProt P07724 25-608); assay: as above
T4 construct: also called Murine SA
Procedure: as §1

[7] = biological target: T5, human serum albumin (human, UniProt P02768 25-609); assay: as above
T5 construct: also called Human SA; HSA
Procedure: as §1

[8] = biological target: T3, cynomolgus serum albumin; assay: method not stated (Table 6 comparison)
[9] = biological target: T5, human serum albumin; assay: method not stated (Table 6 comparison)

T3 sequence (A2V9Z4 25-608 limits assumed): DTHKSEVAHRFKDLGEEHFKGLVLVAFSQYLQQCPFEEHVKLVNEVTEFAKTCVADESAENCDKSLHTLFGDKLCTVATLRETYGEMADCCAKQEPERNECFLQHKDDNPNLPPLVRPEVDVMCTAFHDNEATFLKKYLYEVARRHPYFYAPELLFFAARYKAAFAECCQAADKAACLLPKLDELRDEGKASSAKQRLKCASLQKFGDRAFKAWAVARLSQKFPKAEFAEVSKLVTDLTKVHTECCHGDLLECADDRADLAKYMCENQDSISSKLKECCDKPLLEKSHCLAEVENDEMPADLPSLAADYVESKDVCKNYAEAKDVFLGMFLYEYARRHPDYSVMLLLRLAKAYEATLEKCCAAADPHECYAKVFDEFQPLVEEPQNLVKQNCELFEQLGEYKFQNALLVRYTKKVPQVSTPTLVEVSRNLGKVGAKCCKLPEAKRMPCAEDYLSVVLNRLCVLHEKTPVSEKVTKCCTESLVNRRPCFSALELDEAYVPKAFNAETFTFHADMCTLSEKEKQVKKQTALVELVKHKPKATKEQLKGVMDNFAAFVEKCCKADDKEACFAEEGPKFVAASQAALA
T5 sequence (P02768 25-609 limits assumed): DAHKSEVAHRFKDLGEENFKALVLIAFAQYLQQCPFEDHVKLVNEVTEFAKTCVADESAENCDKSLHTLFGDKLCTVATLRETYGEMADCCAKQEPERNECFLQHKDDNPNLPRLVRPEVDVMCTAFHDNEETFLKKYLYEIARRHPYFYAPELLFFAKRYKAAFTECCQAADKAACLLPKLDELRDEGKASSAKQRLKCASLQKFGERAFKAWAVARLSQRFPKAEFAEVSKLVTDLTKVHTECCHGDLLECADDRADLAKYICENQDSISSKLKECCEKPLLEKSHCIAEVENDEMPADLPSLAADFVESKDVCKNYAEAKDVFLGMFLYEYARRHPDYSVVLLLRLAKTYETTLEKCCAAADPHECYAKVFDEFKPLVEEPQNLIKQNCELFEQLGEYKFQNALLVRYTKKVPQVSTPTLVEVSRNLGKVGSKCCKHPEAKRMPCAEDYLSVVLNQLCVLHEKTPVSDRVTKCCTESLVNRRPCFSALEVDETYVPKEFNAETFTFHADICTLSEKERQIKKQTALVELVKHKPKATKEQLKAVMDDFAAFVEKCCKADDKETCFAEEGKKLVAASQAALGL
T2 sequence (P08581 25-1390 limits assumed): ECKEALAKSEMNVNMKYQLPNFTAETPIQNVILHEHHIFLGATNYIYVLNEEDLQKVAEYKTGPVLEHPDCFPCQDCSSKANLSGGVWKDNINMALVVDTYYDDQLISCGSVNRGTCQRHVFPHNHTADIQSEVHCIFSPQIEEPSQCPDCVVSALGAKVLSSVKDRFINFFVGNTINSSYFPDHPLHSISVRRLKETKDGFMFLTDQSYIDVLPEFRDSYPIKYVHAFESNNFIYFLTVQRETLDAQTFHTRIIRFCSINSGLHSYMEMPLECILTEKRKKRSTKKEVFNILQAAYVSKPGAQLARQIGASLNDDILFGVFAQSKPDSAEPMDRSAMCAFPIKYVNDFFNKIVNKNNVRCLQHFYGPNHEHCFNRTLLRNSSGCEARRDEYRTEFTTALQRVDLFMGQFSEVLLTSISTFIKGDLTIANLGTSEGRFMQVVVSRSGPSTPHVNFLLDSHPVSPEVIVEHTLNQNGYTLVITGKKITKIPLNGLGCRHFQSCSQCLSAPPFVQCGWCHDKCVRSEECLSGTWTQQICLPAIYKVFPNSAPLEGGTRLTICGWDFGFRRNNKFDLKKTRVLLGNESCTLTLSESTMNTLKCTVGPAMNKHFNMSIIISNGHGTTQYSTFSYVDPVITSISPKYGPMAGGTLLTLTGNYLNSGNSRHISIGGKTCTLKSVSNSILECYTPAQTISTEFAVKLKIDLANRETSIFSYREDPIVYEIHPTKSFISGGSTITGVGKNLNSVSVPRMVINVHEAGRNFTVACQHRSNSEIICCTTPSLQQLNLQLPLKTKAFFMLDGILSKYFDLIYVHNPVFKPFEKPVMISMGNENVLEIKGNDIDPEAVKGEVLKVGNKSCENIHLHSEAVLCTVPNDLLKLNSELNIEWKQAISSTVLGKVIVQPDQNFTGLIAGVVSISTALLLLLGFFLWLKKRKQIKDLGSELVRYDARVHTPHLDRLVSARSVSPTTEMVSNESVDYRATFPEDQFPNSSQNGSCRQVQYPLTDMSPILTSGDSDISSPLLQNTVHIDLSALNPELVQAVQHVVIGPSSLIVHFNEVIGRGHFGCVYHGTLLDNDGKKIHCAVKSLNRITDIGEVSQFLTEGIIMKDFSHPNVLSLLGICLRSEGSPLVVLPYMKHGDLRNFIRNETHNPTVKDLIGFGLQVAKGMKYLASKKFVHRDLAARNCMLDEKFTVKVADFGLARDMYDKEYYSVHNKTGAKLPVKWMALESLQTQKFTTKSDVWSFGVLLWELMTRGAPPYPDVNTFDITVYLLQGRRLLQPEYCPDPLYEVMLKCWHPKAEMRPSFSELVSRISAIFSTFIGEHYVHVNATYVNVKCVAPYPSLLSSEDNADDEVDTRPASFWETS
T1 sequence (P08581 25-932 limits assumed): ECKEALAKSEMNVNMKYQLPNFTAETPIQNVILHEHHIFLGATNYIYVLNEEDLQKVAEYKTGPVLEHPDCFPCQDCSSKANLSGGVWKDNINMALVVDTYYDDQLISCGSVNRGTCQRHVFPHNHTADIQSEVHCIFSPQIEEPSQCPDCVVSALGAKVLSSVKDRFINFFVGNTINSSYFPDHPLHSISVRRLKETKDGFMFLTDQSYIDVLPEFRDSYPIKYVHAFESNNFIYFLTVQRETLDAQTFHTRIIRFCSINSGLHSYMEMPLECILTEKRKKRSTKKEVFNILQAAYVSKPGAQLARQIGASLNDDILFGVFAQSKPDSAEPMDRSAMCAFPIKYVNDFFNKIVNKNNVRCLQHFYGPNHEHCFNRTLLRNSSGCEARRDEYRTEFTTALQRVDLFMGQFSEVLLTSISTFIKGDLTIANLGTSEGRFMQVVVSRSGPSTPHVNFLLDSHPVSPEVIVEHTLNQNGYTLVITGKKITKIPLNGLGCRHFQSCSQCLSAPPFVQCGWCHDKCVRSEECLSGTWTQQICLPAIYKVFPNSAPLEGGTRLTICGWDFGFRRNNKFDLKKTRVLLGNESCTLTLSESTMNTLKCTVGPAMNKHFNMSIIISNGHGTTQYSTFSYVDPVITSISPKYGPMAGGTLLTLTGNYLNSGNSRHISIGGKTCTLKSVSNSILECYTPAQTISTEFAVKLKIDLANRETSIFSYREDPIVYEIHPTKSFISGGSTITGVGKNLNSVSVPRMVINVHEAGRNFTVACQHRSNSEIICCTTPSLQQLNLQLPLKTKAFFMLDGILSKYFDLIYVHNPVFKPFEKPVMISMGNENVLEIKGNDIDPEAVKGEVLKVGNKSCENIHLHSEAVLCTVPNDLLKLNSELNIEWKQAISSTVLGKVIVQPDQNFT

fold improved potency vs 5D5 Fab v2 [1]: > 5 fold | fold improved potency vs 5D5 Fab v2, HGF-dependent c-MET phosphorylation in A549 cells [2]: ~2 fold | IC50 [3]: 0.066 nM | IC50, HGF-dependent c-MET phosphorylation in A549 cells (MSD), +HSA [4]: 4.2 nM | IC50, HGF-dependent c-MET phosphorylation in A549 cells (MSD), -HSA [4]: 5.41 nM | Kd [5]: 27 nM | koff [5]: 0.0032 s⁻¹ | kon [5]: 120000 M⁻¹ s⁻¹ | Kd [6]: 300 nM | koff [6]: 0.05 s⁻¹ | kon [6]: 170000 M⁻¹ s⁻¹ | Kd [7]: 24 nM | koff [7]: 0.0033 s⁻¹ | kon [7]: 130000 M⁻¹ s⁻¹
B1: A007901219 (A00790105-9GS-Alb23) (bispecific antibody)
chain: DVQLVESGGGLVQPGGSLRLSCAASGFILDYYAIGWFRQAPGKEREGVLCIDASDDITYYADSVKGRFTISRDNSKNTVYLQMNSLRPEDTAVYYCATPIGLSSSCLLEYDYDYWGQGTLVTVSSGGGGSGGGSEVQLLESGGGLVQPGGSLRLSCAASGFTFRSFGMSWVRQAPGKGPEWVSSISGSGSDTLYADSVKGRFTISRDNSKNTLYLQMNSLRPEDTAVYYCTIGGSLSRSSQGTLVTVSS
notes: Single polypeptide chain; also called A007901219 (Alb23)

Kd [5]: 2.7 nM | Kd [7]: 2.6 nM | Kd [8]: 3 nM | Kd [9]: 2.7 nM
B2: Alb-23 (VHH)
VHH: EVQLLESGGGLVQPGGSLRLSCAASGFTFRSFGMSWVRQAPGKGPEWVSSISGSGSDTLYADSVKGRFTISRDNSKNTLYLQMNSLRPEDTAVYYCTIGGSLSRSSQGTLVTVSS
notes: Monovalent anti-serum albumin Nanobody, a humanized version of Alb-1

— patent publication US20140228546A1 (Ablynx, published 2014)
